From IntAct's records for PubMed 19130088 come the findings set out here.

B1: Calcium-dependent protein kinase 4 (Arabidopsis thaliana (Mouse-ear cress)), Q38869 (parent)
chain: MEKPNPRRPSNSVLPYETPRLRDHYLLGKKLGQGQFGTTYLCTEKSSSANYACKSIPKRKLVCREDYEDVWREIQIMHHLSEHPNVVRIKGTYEDSVFVHIVMEVCEGGELFDRIVSKGCFSEREAAKLIKTILGVVEACHSLGVMHRDLKPENFLFDSPSDDAKLKATDFGLSVFYKPGQYLYDVVGSPYYVAPEVLKKCYGPEIDVWSAGVILYILLSGVPPFWAETESGIFRQILQGKIDFKSDPWPTISEGAKDLIYKMLDRSPKKRISAHEALCHPWIVDEHAAPDKPLDPAVLSRLKQFSQMNKIKKMALRVIAERLSEEEIGGLKELFKMIDTDNSGTITFEELKAGLKRVGSELMESEIKSLMDAADIDNSGTIDYGEFLAATLHINKMEREENLVVAFSYFDKDGSGYITIDELQQACTEFGLCDTPLDDMIKEIDLDNDGKIDFSEFTAMMKKGDGVGRSRTMRNNLNFNIAEAFGVEDTSSTAKSDDSPK
partner: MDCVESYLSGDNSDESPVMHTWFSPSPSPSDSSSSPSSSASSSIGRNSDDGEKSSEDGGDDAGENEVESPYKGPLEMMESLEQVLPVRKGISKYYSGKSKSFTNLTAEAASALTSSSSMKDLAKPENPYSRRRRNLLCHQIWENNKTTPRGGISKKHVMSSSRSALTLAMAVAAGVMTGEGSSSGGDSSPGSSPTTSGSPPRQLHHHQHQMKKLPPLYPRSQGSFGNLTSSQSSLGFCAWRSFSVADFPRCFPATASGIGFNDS

The variants in the experiment derive from B1. The following applies: with o3l1_arath O3L1, Q9C593.
For the variant MEKPNPRRPSNSVLPYETPRLRDHYLLGKKLGQGQFGTTYLCTEKSSSANYACKSIPKRKLVCREDYEDVWREIQIMHHLSEHPNVVRIKGTYEDSVFVHIVMEVCEGGELFDRIVSKGCFSEREAAKLIKTILGVVEACHSLGVMHRALKPENFLFDSPSDDAKLKATDFGLSVFYKPGQYLYDVVGSPYYVAPEVLKKCYGPEIDVWSAGVILYILLSGVPPFWAETESGIFRQILQGKIDFKSDPWPTISEGAKDLIYKMLDRSPKKRISAHEALCHPWIVDEHAAPDKPLDPAVLSRLKQFSQMNKIKKMALRVIAERLSEEEIGGLKELFKMIDTDNSGTITFEELKAGLKRVGSELMESEIKSLMDAADIDNSGTIDYGEFLAATLHINKMEREENLVVAFSYFDKDGSGYITIDELQQACTEFGLCDTPLDDMIKEIDLDNDGKIDFSEFTAMMKKGDGVGRSRTMRNNLNFNIAEAFGVEDTSSTAKSDDSPK [D149A], the “effect of a mutation on the interaction” value is “disrupting interaction”. Consider MEKPNPRRPSNSVLPYETPRLRDHYLLGKKLGQGQFGTTYLCTEKSSSANYACKSIPKRKLVCREDYEDVWREIQIMHHLSEHPNVVRIKGTYEDSVFVHIVMEVCEGGELFDRIVSKGCFSEREAAKLIKTILGVVEACHSLGVMHRDLKPENFLFDSPSDDAKLKATAFGLSVFYKPGQYLYDVVGSPYYVAPEVLKKCYGPEIDVWSAGVILYILLSGVPPFWAETESGIFRQILQGKIDFKSDPWPTISEGAKDLIYKMLDRSPKKRISAHEALCHPWIVDEHAAPDKPLDPAVLSRLKQASQMNKIKKMALRVIAERLSEEEIGGLKELFKMIDTDNSGTITFEELKAGLKRVGSELMESEIKSLMDAADIDNSGTIDYGEFLAATLHINKMEREENLVVAFSYFDKDGSGYITIDELQQACTEFGLCDTPLDDMIKEIDLDNDGKIDFSEFTAMMKKGDGVGRSRTMRNNLNFNIAEAFGVEDTSSTAKSDDSPK [D170A;F305A], for which the “effect of a mutation on the interaction” value is recorded as “disrupting interaction”. For MEKPNPRRPSNSVLPYETPRLRDHYLLGKKLGQGQFGTTYLCTEKSSSANYACKSIPKRKLVCREDYEDVWREIQIMHHLSEHPNVVRIKGTYEDSVFVHIVMEVCEGGELFDRIVSKGCFSEREAAKLIKTILGVVEACHSLGVMHRDLKPENFLFDSPSDDAKLKATAFGLSVFYKPGQYLYDVVGSPYYVAPEVLKKCYGPEIDVWSAGVILYILLSGVPPFWAETESGIFRQILQGKIDFKSDPWPTISEGAKDLIYKMLDRSPKKRISAHEALCHPWIVDEHAAPDKPLDPAVLSRLKQFSQMNKIKKMALRVIAERLSEEEIGGLKELFKMIDTDNSGTITFEELKAGLKRVGSELMESEIKSLMDAADIDNSGTIDYGEFLAATLHINKMEREENLVVAFSYFDKDGSGYITIDELQQACTEFGLCDTPLDDMIKEIDLDNDGKIDFSEFTAMMKKGDGVGRSRTMRNNLNFNIAEAFGVEDTSSTAKSDDSPK [D170A], the “effect of a mutation on the interaction” value was “disrupting interaction”. For MEKPNPRRPSNSVLPYETPRLRDHYLLGKKLGQGQFGTTYLCTEKSSSANYACKSIPKRKLVCREDYEDVWREIQIMHHLSEHPNVVRIKGTYEDSVFVHIVMEVCEGGELFDRIVSKGCFSEREAAKLIKTILGVVEACHSLGVMHRALKPENFLFDSPSDDAKLKATDFGLSVFYKPGQYLYDVVGSPYYVAPEVLKKCYGPEIDVWSAGVILYILLSGVPPFWAETESGIFRQILQGKIDFKSDPWPTISEGAKDLIYKMLDRSPKKRISAHEALCHPWIVDEHAAPDKPLDPAVLSRLKQASQMNKIKKMALRVIAERLSEEEIGGLKELFKMIDTDNSGTITFEELKAGLKRVGSELMESEIKSLMDAADIDNSGTIDYGEFLAATLHINKMEREENLVVAFSYFDKDGSGYITIDELQQACTEFGLCDTPLDDMIKEIDLDNDGKIDFSEFTAMMKKGDGVGRSRTMRNNLNFNIAEAFGVEDTSSTAKSDDSPK [D149A;F305A], the “effect of a mutation on the interaction” value is listed as “disrupting interaction”.
